Experimental data: PMC11875817

Columns and labels:
[1] = target: Escherichia coli MG1655 thioredoxin reductase TrxB (Escherichia coli MG1655) (UniProt P0A9P4)
[2] = target: Bacillus subtilis 168 thioredoxin reductase TrxB (Bacillus subtilis 168) (UniProt P80880)
Sequence of UniProt P80880 (P80880 whole entry): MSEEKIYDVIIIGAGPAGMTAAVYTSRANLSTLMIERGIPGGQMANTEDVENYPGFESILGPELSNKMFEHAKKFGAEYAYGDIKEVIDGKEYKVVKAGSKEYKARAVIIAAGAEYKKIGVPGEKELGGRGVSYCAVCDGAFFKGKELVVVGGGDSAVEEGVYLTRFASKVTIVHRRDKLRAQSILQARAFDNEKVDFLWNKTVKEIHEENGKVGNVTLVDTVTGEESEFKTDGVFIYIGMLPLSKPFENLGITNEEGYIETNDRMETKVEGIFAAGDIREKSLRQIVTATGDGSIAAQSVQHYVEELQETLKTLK

Sequence of UniProt P0A9P4 (P0A9P4 whole entry): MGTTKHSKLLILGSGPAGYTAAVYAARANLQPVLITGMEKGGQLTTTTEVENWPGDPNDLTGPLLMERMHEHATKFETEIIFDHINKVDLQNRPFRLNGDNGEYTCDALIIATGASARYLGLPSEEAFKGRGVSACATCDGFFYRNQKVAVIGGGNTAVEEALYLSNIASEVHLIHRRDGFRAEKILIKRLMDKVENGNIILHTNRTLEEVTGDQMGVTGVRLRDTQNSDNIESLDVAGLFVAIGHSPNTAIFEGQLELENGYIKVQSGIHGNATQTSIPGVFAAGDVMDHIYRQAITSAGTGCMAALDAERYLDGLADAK

Row | Km of TrxB for its substrate TrxA; DTNB reduction assay (TNB release, A412), 50 nM ecTrxB, 0 to 6 μM ecTrxA, NADPH, no auranofin [1] [µM] | Km of TrxB for its substrate TrxA; DTNB reduction assay (TNB release, A412), 50 nM bsTrxB, 0 to 6 μM bsTrxA, NADPH, no auranofin [2] [µM] | Molecule
1 | 1.35 |  | Escherichia coli K-12 MG1655 thioredoxin TrxA (from UniProt P0AA25 1-109) (natural protein)
2 |  | 1.72 | Bacillus subtilis 168 thioredoxin TrxA (natural protein) MAIVKATDQSFSAETSEGVVLADFWAPWCGPCKMIAPVLEELDQEMGDKLKIVKIDVDENQETAGKYGVMSIPTLLVLKDGEVVETSVGFKPKEALQELVNKHL
